According to patent US20060029943A1:

Molecular target: HLA class I on primary cervical cancer cells CA1 and CA2 (haplotype HLA A1) (human)
Experiment: cell-based or functional assay

Mab specific for monomorphic HLA class I W6/32 (antibody)
percent killing of CA1 target, AAV/E6/Neo (purified virus) plus anti-class I antibodies (36.1+/-1.4% without antibody): 0.4%
